From patent publication US20030229203

Experiments:
Eotaxin = Eotaxin (UniProt P51671)
IP-10 = IP-10 (UniProt P02778)
MCP-1 = MCP-1 (UniProt P13500)
MCP-2 = MCP-2 (UniProt P80075)
RANTES(1-68) = RANTES(1-68) (UniProt P13501)
RANTES(1-68), sequence (P13501 24-91): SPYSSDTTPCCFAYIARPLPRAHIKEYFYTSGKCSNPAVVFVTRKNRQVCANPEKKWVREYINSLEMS

Eotaxin, sequence (P51671 24-97): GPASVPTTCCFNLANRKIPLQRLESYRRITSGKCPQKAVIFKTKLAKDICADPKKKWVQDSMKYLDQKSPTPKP
MCP-2, sequence (P80075 24-99): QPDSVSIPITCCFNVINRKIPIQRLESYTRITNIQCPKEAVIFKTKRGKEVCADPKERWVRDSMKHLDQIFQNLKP
MCP-1, sequence (P13500 whole entry, looked up): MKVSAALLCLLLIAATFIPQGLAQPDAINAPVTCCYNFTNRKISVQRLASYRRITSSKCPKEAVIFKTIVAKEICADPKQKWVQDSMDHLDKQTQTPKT
IP-10, sequence (P02778 whole entry, looked up): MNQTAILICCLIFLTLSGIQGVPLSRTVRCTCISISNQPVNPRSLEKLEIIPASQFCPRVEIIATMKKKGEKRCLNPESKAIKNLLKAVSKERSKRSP

## enzymatically active (E+) recombinant soluble human CD26 (sCD26)
Eotaxin
  CD26 cleavage (ES-MS after overnight digestion with sCD26): Yes
IP-10
  CD26 cleavage (ES-MS after overnight digestion with sCD26): Yes
MCP-1
  CD26 cleavage (ES-MS after overnight digestion with sCD26): No
MCP-2
  CD26 cleavage (ES-MS after overnight digestion with sCD26): Yes
RANTES(1-68)
  hydrolysis of rhRANTES by sCD26 (ES-MS of cleavage products): 100 nM rhRANTES underwent partial to complete hydrolysis when incubated overnight at 37 °C with increasing amounts (25 to 250 (U) of sCD26
